To fix the notation:
T1: human CD73 on tumor cell line MDA-MB-231 that highly expresses human CD73 (human, UniProt P21589 27-549)
T1 sequence (looked up): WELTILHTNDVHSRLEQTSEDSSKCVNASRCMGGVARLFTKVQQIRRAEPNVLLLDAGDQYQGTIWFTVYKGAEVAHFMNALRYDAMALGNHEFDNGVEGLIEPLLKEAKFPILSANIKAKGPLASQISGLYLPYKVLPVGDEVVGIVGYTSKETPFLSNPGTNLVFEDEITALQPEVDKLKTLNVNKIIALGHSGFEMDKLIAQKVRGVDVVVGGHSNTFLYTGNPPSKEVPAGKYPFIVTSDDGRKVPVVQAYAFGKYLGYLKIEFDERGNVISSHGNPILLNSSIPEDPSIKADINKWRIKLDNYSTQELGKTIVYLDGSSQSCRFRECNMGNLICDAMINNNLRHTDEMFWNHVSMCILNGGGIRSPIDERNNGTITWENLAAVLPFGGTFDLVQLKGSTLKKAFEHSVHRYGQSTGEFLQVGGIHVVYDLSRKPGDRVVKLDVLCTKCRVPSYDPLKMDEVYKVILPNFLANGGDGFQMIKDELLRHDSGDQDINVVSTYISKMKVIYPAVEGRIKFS

T2: CD73-Myc-His (a fusion protein of the CD73 mature protein extracellular domain and Myc tag and His tag) (human, UniProt P21589 27-547, biotinylated with a kit (sites not given))
T2 construct: Captured on streptavidin-coated plates in the ELISA; also called biotinylated CD73-myc-his fusion protein; human CD73 protein
T2 sequence: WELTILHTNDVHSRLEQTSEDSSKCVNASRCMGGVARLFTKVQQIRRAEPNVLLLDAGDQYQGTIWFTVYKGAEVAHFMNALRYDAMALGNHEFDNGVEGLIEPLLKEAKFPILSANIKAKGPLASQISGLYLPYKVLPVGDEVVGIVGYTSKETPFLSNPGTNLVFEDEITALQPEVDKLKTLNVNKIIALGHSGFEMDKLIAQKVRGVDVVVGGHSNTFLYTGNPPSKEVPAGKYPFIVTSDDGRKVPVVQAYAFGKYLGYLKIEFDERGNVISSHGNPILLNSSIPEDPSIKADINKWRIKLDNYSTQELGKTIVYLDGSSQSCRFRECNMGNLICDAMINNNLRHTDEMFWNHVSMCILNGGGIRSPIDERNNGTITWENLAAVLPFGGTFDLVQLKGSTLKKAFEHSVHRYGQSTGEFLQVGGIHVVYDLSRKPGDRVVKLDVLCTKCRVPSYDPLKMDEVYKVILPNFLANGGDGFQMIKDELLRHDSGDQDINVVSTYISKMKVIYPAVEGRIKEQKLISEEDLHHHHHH

B1: CPX006 (antibody CPX-006 disclosed in patent application WO2018013611) (antibody, V domains shown)
VH: QVQLVQSGAEVEKPGASVKVSCKASGYTFTSYWITWVRQAPGQGLEWMGDIYPGSGNTNYNEKFKTRVTITADKSTSTAYMELSSLRSEDTAVYYCAKEGGLTTEDYALDYWGQGTLVTVSS
VL: EIVLTQSPATLSLSPGERATLSCRASKNVSTSGYSYMHWYQQKPGQAPRLLIYLASNLESGIPPRFSGSGYGTDFTLTINNIESEDAAYYFCQHSRELPFTFGQGTKVEIKR
B2: Hab110.21 (antibody, human IgG1, kappa, V domains shown)
VH: EVQLVQSGAEVKKPGASVKVSCKASGYTFTSYTMHWVRQAPGQRLEWMGYINPNSFYIEYNQKFKDRVTITRDTSASTAYMELSSLRSEDTAVYYCARGDYDLFYDMDNWGQGTTVTVSS
VL: DIQMTQSPSSLSASVGDRVTITCRASQDIGNSLNWLQQKPGKAIKRLIYATFRLDSGVPSRFSGSRSGTEYTLTISSLQPEDFATYYCQQYASFPWTFGGGTKVEIKR
notes: also called humanized antibody of mab110
B3: Hab127.31d (antibody, human IgG1, kappa, V domains shown)
VH: EVQLVQSGAEVKKPGASVKVSCKASGYTFTAYFMNWVRQAPGQGLEWMGRIYHNKGDTFYSQKFKGRVTMTVDKSTSTVYMELSSLRSEDTAVYYCATSYVGDWGQGTTVTVSS
VL: B2 VL with N31D, K42G, I44L, F52S, R53S, R66G, Q89L
notes: also called humanized antibody of mab127
B4: Hab108.64 (antibody, human IgG1, kappa, V domains shown)
VH: EVTLKQSGPGLVKPTETLTLTCTVSGFSLSSYGIQWVRQPPGKGLEWLGVIWSGGSADYNAAFISRLTISKDTSKSQVVLTMTNMDPVDTATYYCAGQYGSVWGQGTLVTVSS
VL: DIQMTQSPSSLSASVGDRVTITCRASQDIGDRLNWLQQKPGGAIKRLIYATSSLDSGVPKRFSGSGSGTEYTLTISSLQPEDFATYYCLQYAGSWTFGGGTKVEIKR
notes: also called humanized antibody of mab108

The values that follow come from US20220220218A1 (JIANGSU HENGRUI MEDICINE, published 2022).

Where a chain is given by its changes, count along the chain named.

For one assay, the target named is T1, human CD73 on tumor cell line …. Nature of the assay: cell-based or functional assay.
For the molecule B1, the “IC50 (nM) in the assay showing the inhibition of enzyme activity in MDA-MB-231 cell” value was 10.2 nM.

As to B2, the “IC50 (nM) in the assay showing the inhibition of enzyme activity in MDA-MB-231 cell” value is 0.329 nM.

Take B3: the “IC50 (nM) in the assay showing the inhibition of enzyme activity in MDA-MB-231 cell” value was determined as 0.505 nM.

As to B4, the “IC50 (nM) in the assay showing the inhibition of enzyme activity in MDA-MB-231 cell” value is 0.53 nM.

In another assay the target is T2, CD73-Myc-His (a fusion protein of the …). The assay is described as follows: ELISA; biotinylated CD73-myc-his captured on streptavidin plate. As to the method:
The binding of anti-CD73 antibodies to human CD73 protein was tested by ELISA assay. The biotinylated CD73 fusion protein was immobilized onto a 96-well microtiter plate by binding to the Streptavidin coated on the microtiter plate. The signal strength after the addition of the antibody was used to determine the binding activity of the antibody to CD73. The specific experimental procedures were as follows:
Streptavidin (Sigma, Cat No. S4762-5MG) was diluted with PBS, pH7.4 (Shanghai BasalMedia, Cat No. B320) buffer to a concentration of […], was added into the 96-well microtiter plate (Corning, Cat No. CLS3590-100EA), 50 μl/well, and incubated in an incubator at 37° C. for 2 hours. The liquid was discarded, 250 μl/well blocking solution (5% skim milk (BD skim milk, Cat No. 232100) diluted in PBS) was added, and incubated in an incubator at 37° C. for 3 hours or at 4° C. overnight (16-18 hours) for blocking. After blocking, the blocking solution was discarded; the plate was washed for 5 times with PBST buffer (PBS containing 0.05% tween-20, pH7.4), 50 μl/well of biotinylated CD73-myc-his fusion protein (Tojin Chemical, Cat No. LK03, biotinylation method was according to the kit's instruction) diluted with sample diluent (PBS containing 1% BSA, pH7.4) was added, and incubated in an incubator at 37° C. 1 hour or at 4° C. overnight. After the incubation was finished, the reaction solution was removed from the microtiter plate, the plate was washed for 5 times with PBST, 50 μl/well of various concentrations of each of the test antibodies (purified hybridoma antibodies or humanized antibodies, diluted with sample diluent) were added, and incubated in an incubator at 37° C. for 1 hour. After the incubation was finished, the plate was washed for 5 times with PBST, 50 µl/well of HRP-labeled goat anti-mouse secondary antibody (Jackson Immuno Research, Cat No. 115-035-003) or goat anti-human secondary antibody (Jackson Immuno Research, Cat No. 109-035-003) diluted with sample diluent was added, and incubated at 37° C. for 1 hour. The plate was washed for 5 times with PBST, 50 μl/well of TMB chromogenic substrate (KPL, Cat No. 52-00-03) was added, incubated at room temperature for 5-10 min, and 50 μl/well of 1M H₂SO₄ was added to stop the reaction.
B1 had a 50% effective concentration (EC50) of 0.088 nM.

B2 yielded an EC50 of 0.026 nM.

The molecule B3 showed an EC50 of 0.026 nM.

As to B4, the 50% effective concentration (EC50) was 0.047 nM.
